Patent US20250115669A1, “FGFR1/KLB Targeting Agonistic Antigen-Binding Proteins and Conjugates Thereof with GLP-1R Agonistic Peptides” (SANOFI, priority 2020, published 2025)
Positions count from the first letter of the chain named. Names may count otherwise.

T1: human beta-Klotho (Homo sapiens, UniProt Q86Z14)
T1 sequence (Q86Z14 1-1044): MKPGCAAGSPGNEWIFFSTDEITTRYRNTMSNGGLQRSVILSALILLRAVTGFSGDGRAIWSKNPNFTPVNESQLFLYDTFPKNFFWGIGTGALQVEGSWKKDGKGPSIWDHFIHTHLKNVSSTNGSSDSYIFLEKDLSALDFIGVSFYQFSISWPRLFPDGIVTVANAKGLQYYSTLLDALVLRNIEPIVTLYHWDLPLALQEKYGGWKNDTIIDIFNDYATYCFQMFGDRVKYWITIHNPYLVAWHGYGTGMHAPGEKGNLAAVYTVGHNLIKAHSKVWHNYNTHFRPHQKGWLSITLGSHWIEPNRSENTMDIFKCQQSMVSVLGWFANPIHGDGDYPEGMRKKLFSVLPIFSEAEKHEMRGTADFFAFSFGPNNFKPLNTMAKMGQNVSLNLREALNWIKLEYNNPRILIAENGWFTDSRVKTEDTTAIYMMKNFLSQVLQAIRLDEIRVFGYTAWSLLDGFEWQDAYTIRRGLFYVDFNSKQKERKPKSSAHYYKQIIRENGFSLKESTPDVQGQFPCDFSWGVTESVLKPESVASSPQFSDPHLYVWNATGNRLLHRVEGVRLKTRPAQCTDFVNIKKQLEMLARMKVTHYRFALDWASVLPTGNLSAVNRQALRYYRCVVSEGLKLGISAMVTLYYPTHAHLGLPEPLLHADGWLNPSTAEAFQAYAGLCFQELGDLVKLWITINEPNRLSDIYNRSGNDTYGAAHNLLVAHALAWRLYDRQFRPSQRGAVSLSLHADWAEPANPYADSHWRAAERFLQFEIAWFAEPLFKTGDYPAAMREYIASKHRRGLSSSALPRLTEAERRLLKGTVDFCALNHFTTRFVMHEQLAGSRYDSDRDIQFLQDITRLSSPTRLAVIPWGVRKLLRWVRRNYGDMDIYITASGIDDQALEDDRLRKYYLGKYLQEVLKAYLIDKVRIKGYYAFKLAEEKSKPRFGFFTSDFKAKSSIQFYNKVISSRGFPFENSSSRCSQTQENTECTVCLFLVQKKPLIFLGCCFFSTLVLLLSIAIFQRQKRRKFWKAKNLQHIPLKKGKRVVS

B1: Ab0408: IgG4 PE; 16H7 VL (Y48del, D95T, W90F); 16H7 VH (M34V, H52W, I83T, D109E) (antibody)
VH: QVTLKESGPVLVKPTETLTLTCTVSGFSLNNARVGVSWIRQPPGKALEWLAWIFSNDEKSYSTSLKSRLTISKDTSKSQVVLTMTNMDPVDTATYYCARSVVTGGYYYEGMDVWGQGTTVTVSS
light: SYVLTQPPSVSVAPGQTARITCGGNNIGSESVHWYQQKPGQAPVLVVDDSDRPSGIPERFSGSNSGNTATLTISRVEAGDEADYYCQVFDGNSTHVVFGGGTKLTVLGQPKANPTVTLFPPSSEELQANKATLVCLISDFYPGAVTVAWKADGSPVKAGVETTKPSKQSNNKYAASSYLSLTPEQWKSHRSYSCQVTHEGSTVEKTVAPTECS
B2: Ab0326: IgG4 PE; 16H7 VL (N25S, D49Y, D50E, D91E, N93S); 16H7 VH (M34V, I83T, D109E) (antibody)
VH: B1 VH with W52H
light: SYVLTQPPSVSVAPGQTARITCGGSNIGSESVHWYQQKPGQAPVLVVYYESDRPSGIPERFSGSNSGNTATLTISRVEAGDEADYYCQVWEGSSDHVVFGGGTKLTVLGQPKANPTVTLFPPSSEELQANKATLVCLISDFYPGAVTVAWKADGSPVKAGVETTKPSKQSNNKYAASSYLSLTPEQWKSHRSYSCQVTHEGSTVEKTVAPTECS
B3: Ab0327: IgG4 PE; 16H7 VL (N25S, D49Y, D50Y, D91E, N93E); 16H7 VH (M34V, I83T, D109E) (antibody)
VH: B1 VH with W52H
light: B2 light with E50Y, S93E
B4: Ab0328: IgG4 PE; 16H7 VL (N25S, D49Y, D50A, D91A, N93S); 16H7 VH (M34V, I83T, D109E) (antibody)
VH: B1 VH with W52H
light: B2 light with E50A, E91A
B5: Ab0330: IgG4 PE; 16H7 VL (N25S, D49S, D50E, D91A, N93E); 16H7 VH (M34V, I83T, D109E) (antibody)
VH: B1 VH with W52H
light: B2 light with Y49S, E91A, S93E
B6: Ab0416: IgG4 PE; 16H7 VL (N25S, D49Y, D50E, D91E, N93E); 16H7 VH (M34V, I83T, D109E) (antibody)
VH: B1 VH with W52H
light: B2 light with S93E
B7: Ab0417: IgG4 PE; 16H7 VL (N25S, D49Y, D50E, D91H, N93E); 16H7 VH (M34V, I83T, D109E) (antibody)
VH: B1 VH with W52H
light: B2 light with E91H, S93E
B8: Ab0332: IgG4 PE; 16H7 VL (N25S, D49S, D50E, D91E, N93A); 16H7 VH (M34V, I83T, D109E) (antibody)
VH: B1 VH with W52H
light: B2 light with Y49S, S93A
B9: Ab0410: IgG4 PE; 16H7 VL (Y48del, D95S, W90Y); 16H7 VH (M34V, I83T, D109E) (antibody)
VH: B1 VH with W52H
light: B1 light with F89Y, T94S
B10: Ab0329: IgG4 PE; 16H7 VL (N25S, D49Y, D50S, D91A, N93S); 16H7 VH (M34V, I83T, D109E) (antibody)
VH: B1 VH with W52H
light: B2 light with E50S, E91A

Biological target: T1, human beta-Klotho
Assay: SPR off-rate screening of antibody mutants (human beta-Klotho captured by anti-His antibody)
Format: binding
Conditions: mean, n=3
Protocol: Screening of antibody mutants for binding to human beta-Klotho was determined in a different SPR assay set up. Human beta-Klotho was affinity captured by an anti-His antibody (from His capture kit, GE Healthcare) that was immobilized to a series S CM5 chip (GE Healthcare) by amine reactive coupling as described above. The antibody samples were used as analytes at 50 nmol/L concentration. Association time was 240 sec and dissociation time was 300 sec. Chip surfaces were regenerated using the regeneration solution supplied with the His capture kit. The off-rates (kd) were determined using single exponential fitting in the Biacore 8K Evaluation Software version 1.1.1.7442 (GE Healthcare).

koff human KLB	Molecule
no binding	B1
0.00175 s⁻¹	B2
0.0003459 s⁻¹	B3
invalid fit	B4
invalid fit	B5
0.00107 s⁻¹	B6
0.0003027 s⁻¹	B7
0.00143 s⁻¹	B8
no binding	B9
invalid fit	B10
